Biological target: the molecule itself
Assay: native MS; nanoelectrospray, Mab TrmD exchanged into 200 mM ammonium acetate pH 7.0, room temperature, protein alone (dimer also seen with 5% DMSO and with ligands)

B1: Mycobacterium abscessus tRNA (m1G37) methyltransferase (TrmD) (enzyme, UniProt B1MDI3 1-242, looked up)
chain: MKIDVVTIFPEYLQPVRQSLPGKAIDAGLVDVAVHDLRRWTHDVHKSVDDSPYGGGPGMVMKPTVWGDALDEICTSETLLVVPTPAGYPFTQETAWQWSTEDHLVIACGRYEGIDQRVADDAATRMRVREVSIGDYVLNGGEAAALVIIEAVLRLVPGVLGNALSAQEDSHSEGMASLLEGPSYTRPPSWRGMDVPPVLLSGDHAKIAAWRAEQSRQRTIERRPDLLGFDSPTGEHGGDGLS
**Q.** Which “stoichiometry N” value does the source give for B1 here?
**A.** 2

— PMC6691401 (Journal of Medicinal Chemistry, 2019)
